Ends that are not written are not given here.
Assays:
PD-L1 [1] = target: T1, PD-L1 (Homo sapiens, UniProt Q9NZQ7); test: Immunohistochemistry using Cy5-peptide (fluorescence) on FFPE tissues and lung cancer TMA; format: binding; design: Seven PD-L1 expressing NSCLC patient tissues were obtained from the MU OneHealth tissue bank; tissue MU OneHealth tissue bank; U.S. Biomax (TMA) LC1923; host or cells: FFPE placenta, seven NSCLC patient tissues, 192-case lung cancer tissue microarray, four Hodgkin's lymphoma cases
T1 sequence (Q9NZQ7 19-290): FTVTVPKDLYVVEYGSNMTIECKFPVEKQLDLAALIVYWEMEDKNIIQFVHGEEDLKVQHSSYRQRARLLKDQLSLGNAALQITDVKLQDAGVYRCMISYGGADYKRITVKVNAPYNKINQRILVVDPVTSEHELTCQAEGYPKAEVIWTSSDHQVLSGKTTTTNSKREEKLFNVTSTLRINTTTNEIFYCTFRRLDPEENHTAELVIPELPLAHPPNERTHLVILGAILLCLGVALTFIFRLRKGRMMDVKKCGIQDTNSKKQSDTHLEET
Description: PD-L1 expression was investigated in the same seven FFPE tissues and 192 lung cancer cases on a microarray using our peptide conjugated with Cy5 fluorophore. A lung cancer tissue microarray (TMA) was purchased from U.S. Biomax that contains 192 separate cases of various types of lung cancers (LC1923, biomax.us). In addition, seven NSCLC patient tissues were obtained from the Mizzou OneHealth tissue bank and de-identified according to IRB protocols. Paraffin-embedded tissue slides were baked overnight, then de-waxed and rehydrated according to standard protocols. Tissue sections were then subjected to antigen retrieval in EDTA at 95° C. for 20 minutes in EDTA ([…]). The solution was cooled for an additional 20 minutes on the bench top prior to buffer rinse. Tissues were then incubated with 15 μM Cy5-conjugated peptide for 2 hours in a humid chamber in the dark at RT. After 2 hours, slides were washed with buffer. The slides were then mounted using nucleus-specific DAPI counterstain and cover slipped. Slides were then imaged using fluorescence microscopy on a Leica DM5500 and compared to the same sections which had been stained with the Ventana antibody. For fluorescent analysis, DAPI channels and Cy5 channels were overlaid to image cell nuclei and PD-L1 expression, respectively.
Staining of the placenta and seven selected NSCLC patient tissues was again compared using the SP263 antibody and RK-10-Cy5 which was conjugated with a Cy5 fluorophore (FIG. 16). To stain with the fluorescent PD-L1 peptide, antigen retrieval was performed and tissue slides were treated with 15 μM fluorescent peptide in a dark, humid chamber for 2 hours, washed with buffer, then counter-stained and mounted with DAPI nucleus stain. Peptide-stained slides were imaged on a Leica DM5500 using channels specific for DAPI or Cy5, and channels were overlaid to examine PD-L1 expression. To confirm the data from the IHC stained tissues, the same seven patient tissues A-G were stained with RK-10-Cy5 (FIG. 10). […]

PD-L1 [2] = target: T1, PD-L1; test: Peptide library study of stability and PD-L1 affinity; format: binding; details: library of synthesized peptides
Protocol: Initial research was focuses on understanding the interaction of PD-1 and PD-L1 based on X-ray crystal structure data (FIG. 14) with the goal of identifying the peptide sequence that is selectively mediating the interactions. After the crystal structure of each protein was identified, a proprietary Fortran program was used to analyze which amino acid sequences interact most closely between the two proteins. Number of occurrences for each sequence was calculated and used to identify the peptide sequences used in this study. […] As a first step, a library of peptides was synthesized and the stability and PD-L1 affinity was studied. […] Data related to anti-PD-L1 and mock peptide was used to synthesize peptides for this study. The binding sequences of each peptide were further modified to incorporate either biotin or fluorophore for antigen detection, and to increase solubility of the peptide.

staining of Reed-Sternberg cells (PD-L1 [1]; four Hodgkin's lymphoma patient samples, FIG. 13): showed PD-L1 staining
PD-L1 affinity (PD-L1 [2]): high affinity
Substance: Cy5-GSGSGSTYLCGAISLAPKAQIKESL [RK-10-Cy5]
tumor staining in lung cancer tissue microarray (PD-L1 [1]; 192 lung cancer cases (U.S. Biomax TMA), majority of cases, FIG. 11 panels d, e, f): consistent, specific staining in tumor cells and immune infiltrate
fluorescent tumor staining in NSCLC patient tissues (PD-L1 [1]; seven NSCLC patient tissues A-G, 15 μM fluorescent peptide, 2 hours, FIG. 10): stained many areas of tumor that the SP263 antibody did not

From patent publication US11447550B2, “Peptides for molecular detection of PD-L1” (THE CURATORS OF THE UNIVERSITY OF MISSOURI, priority 2016, dated 2022)
